Data taken from publication PMC5389741 (Molecular cell, 2017).
Where a chain is given by its changes, count along the chain named. Names and notes keep the numbering of the source. Blank lines part the entries; values can stand above or below the binder they belong to.

How the values were obtained:
[1] = target: GST-Beclin1 (human, UniProt Q14457 1-450); assay: pull-down
[2] = target: T1, His-PGK1 (wild type, not acetylated) (human, UniProt P00558 1-417); assay: pull-down
T1 sequence: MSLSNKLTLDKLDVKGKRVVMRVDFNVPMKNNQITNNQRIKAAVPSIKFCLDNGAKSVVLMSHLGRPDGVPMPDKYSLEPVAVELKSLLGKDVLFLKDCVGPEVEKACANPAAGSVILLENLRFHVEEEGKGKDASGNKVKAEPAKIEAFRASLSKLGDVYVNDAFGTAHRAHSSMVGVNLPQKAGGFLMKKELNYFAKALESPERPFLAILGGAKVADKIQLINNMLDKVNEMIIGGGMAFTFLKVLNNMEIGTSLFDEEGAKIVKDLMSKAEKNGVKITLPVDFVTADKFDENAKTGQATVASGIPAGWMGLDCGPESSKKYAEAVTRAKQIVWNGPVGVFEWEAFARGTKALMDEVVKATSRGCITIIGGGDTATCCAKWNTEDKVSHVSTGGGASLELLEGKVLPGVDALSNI

Chain of GST-Beclin1 (Q14457 whole entry): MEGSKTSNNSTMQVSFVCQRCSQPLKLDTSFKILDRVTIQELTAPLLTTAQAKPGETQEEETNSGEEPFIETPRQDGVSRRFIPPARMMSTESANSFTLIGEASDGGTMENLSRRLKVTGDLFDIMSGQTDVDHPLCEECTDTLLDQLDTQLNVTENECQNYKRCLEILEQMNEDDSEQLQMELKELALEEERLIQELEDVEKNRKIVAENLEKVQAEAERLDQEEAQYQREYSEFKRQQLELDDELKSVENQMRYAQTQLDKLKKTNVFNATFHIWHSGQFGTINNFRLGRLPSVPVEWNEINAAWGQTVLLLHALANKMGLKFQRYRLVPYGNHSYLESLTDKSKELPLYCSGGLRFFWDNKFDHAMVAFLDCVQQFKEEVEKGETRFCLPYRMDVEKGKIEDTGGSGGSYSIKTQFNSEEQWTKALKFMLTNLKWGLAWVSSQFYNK

binding result [1]: binds
B1: His-PGK1 acetylated by Flag-ARD1 and Ac-CoA in vitro (enzyme, human)
chain: T1 sequence
modifications: acetyl-lysine at K388 (by ARD1 in vitro)

binding result [2]: binds
B2: GST-ARD1 (wild type) (enzyme, human, UniProt P41227 1-235, looked up)
chain: MNIRNARPEDLMNMQHCNLLCLPENYQMKYYFYHGLSWPQLSYIAEDENGKIVGYVLAKMEEDPDDVPHGHITSLAVKRSHRRLGLAQKLMDQASRAMIENFNAKYVSLHVRKSNRAALHLYSNTLNFQISEVEPKYYADGEDAYAMKRDLTQMADELRRHLELKEKGRHVVLGAIENKVESKGNSPPSSGEACREEKGLAAEDSGGDSKDLSEVSETTESTDVKDSSEASDSAS

binding result [2]: binds
B3: GST-ARD1 S228A (enzyme, human, UniProt P41227 1-235, looked up)
chain: B2 chain with S228A
